Data set [1] addresses T1, wild-type Escherichia coli type II asparaginase (E. coli), P00805.
T1 chain: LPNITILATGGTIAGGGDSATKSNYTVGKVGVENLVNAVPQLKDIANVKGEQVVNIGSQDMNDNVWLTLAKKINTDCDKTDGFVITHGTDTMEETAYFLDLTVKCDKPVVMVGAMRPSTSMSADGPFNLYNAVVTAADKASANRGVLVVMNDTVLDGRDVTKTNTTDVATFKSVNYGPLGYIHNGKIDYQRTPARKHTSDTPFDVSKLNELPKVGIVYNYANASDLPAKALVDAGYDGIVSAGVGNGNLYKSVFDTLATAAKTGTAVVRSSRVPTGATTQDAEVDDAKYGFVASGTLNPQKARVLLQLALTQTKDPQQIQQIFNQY
Briefly: SEC-MALS; analytical size-exclusion chromatography with static light scattering detection; 40 uM EcAII on S200 10/300 GL in 50 mM Tris/HCl pH 7.0, 100 mM NaCl; detection at 280 and 334 nm. The settings on record: remark: other sources report otherwise.

Data set [2] deals with the molecule itself. The description is as above.

The text below walks through data of paper PMC12090219, “Reversible Substrate-Specific Photocontrol of the Chemotherapeutic Asparaginase(-Glutaminase) from Escherichia coli” (ACS Catalysis, 2025).

For orientation: stoichiometry N means a count of units in the complex or per binding partner.

Numbering of substitutions follows the chain as printed.

B1: wild-type Escherichia coli type II asparaginase, P00805 23-348 (enzyme)
chain: T1 chain
Take B1: the stoichiometry N in data set [1] turned out to be 4.

B2: EcAII-T21AzoF (enzyme, E. coli)
chain: T1 chain with T21F
modifications: phenylalanine-4'-azobenzene (AzoF) at position 21
notes: type II L-asparaginase (EcAII) from E. coli, gene ansB, UniProt P00805, with the unnatural amino acid AzoF in place of T21; The new residue is the unnatural amino acid phenylalanine-4'-azobenzene; the as-isolated state is ~100% E; also called EcAII with phenylalanine-4'-azobenzene at position T21
For B2, the “stoichiometry N” value in data set [2] stood at 4.

B3: EcAII-S19AzoF (enzyme, E. coli)
chain: T1 chain with S19F
modifications: phenylalanine-4'-azobenzene (AzoF) at position 19
notes: type II L-asparaginase (EcAII) from E. coli, gene ansB, UniProt P00805, with the unnatural amino acid AzoF in place of S19; The new residue is the unnatural amino acid phenylalanine-4'-azobenzene; the as-isolated state is ~100% E; also called EcAII with phenylalanine-4'-azobenzene at position S19
As to B3, the “stoichiometry N” value in data set [2] came out at 4.
